Experimental data taken from article PMC7037651, “Chemically Crosslinked Bispecific Antibodies for Cancer Therapy: Breaking from the Structural Restrictions of the Genetic Fusion Approach” (International Journal of Molecular Sciences, 2020).

Experiments:
soluble EGFR (sEGFR) [1] = target: soluble EGFR (sEGFR) (UniProt P00533); experiment: SPR; Biacore 2000; sEGFR immobilised on a CM5 chip at the lower amount (1073 to 1122 RU); PBS with 0.005% Tween20; scFv monomer or dimer injected for 120 s at 10 to 250 nM; global fit, 1:1 Langmuir model
soluble EGFR (sEGFR) [2] = target: soluble EGFR (sEGFR) (UniProt P00533); experiment: SPR; Biacore 2000; sEGFR immobilised on a CM5 chip at the higher amount (2605 to 2833 RU); PBS with 0.005% Tween20; scFv monomer or dimer injected for 120 s at 10 to 250 nM; global fit, 1:1 Langmuir model
soluble EGFR (sEGFR) [3] = target: soluble EGFR (sEGFR) (UniProt P00533); experiment: SPR; Biacore 2000; sEGFR immobilised on a CM5 chip (amount not given for Tables 2 and 5); running buffer PBS with 0.005% Tween20; scFv monomer or dimer injected for 120 s at 10 to 250 nM; global fit, 1:1 Langmuir model
soluble EGFR (sEGFR) [4] = target: T1, soluble EGFR (sEGFR) (Homo sapiens (assumed; EGFR on human …, UniProt P00533); experiment: SPR; Biacore 2000; sEGFR immobilised on a CM5 chip at the lower amount (1073 to 1122 RU); PBS with 0.005% Tween20; scFv monomer or dimer injected for 120 s at 10 to 250 nM; global fit, 1:1 Langmuir model; conditions: both partners purified
T1 construct: soluble epidermal growth factor receptor (sEGFR); also called epidermal growth factor receptor; immobilized EGFR; source: prepared as described previously [28]

soluble EGFR (sEGFR) [5] = target: T1, soluble EGFR (sEGFR); experiment: SPR; Biacore 2000; sEGFR immobilised on a CM5 chip at the higher amount (2605 to 2833 RU); PBS with 0.005% Tween20; scFv monomer or dimer injected for 120 s at 10 to 250 nM; global fit, 1:1 Langmuir model; conditions: both partners purified
soluble EGFR (sEGFR) [6] = target: T1, soluble EGFR (sEGFR); experiment: SPR; Biacore 2000; sEGFR immobilised on a CM5 chip (amount not given for Tables 2 and 5); running buffer PBS with 0.005% Tween20; scFv monomer or dimer injected for 120 s at 10 to 250 nM; global fit, 1:1 Langmuir model; conditions: both partners purified
EGFR on A431 cells = target: T2, EGFR on A431 cells (Homo sapiens (A431 cells), UniProt P00533); experiment: flow cytometry on cells; competitive binding: 10^6 A431 cells mixed with non-labeled scFv or dimer (50 pmol), washed, then various amounts of FITC-labeled wild-type h528 scFv added; on ice; conditions: one partner purified
T2 construct: epidermal growth factor receptor on A431, a human epidermoid carcinoma line; also called target-expressing cells; A431 (EGFR-positive tumor cell line); source: endogenous, on A431 cells

“side–tail bivalent h528 scFv dimer with C6 linker” gave a Kd (soluble EGFR (sEGFR) [1]) of 159 nM.

With “tail–tail bivalent h528 scFv dimer with C6 linker” the Kd (soluble EGFR (sEGFR) [1]) was 18 nM, the koff (soluble EGFR (sEGFR) [1]) was 0.0012 s⁻¹ and the kon (soluble EGFR (sEGFR) [1]) was 62000 M⁻¹ s⁻¹. For the same molecule, the Kd (soluble EGFR (sEGFR) [2]) was 23 nM, the koff (soluble EGFR (sEGFR) [2]) was 0.0015 s⁻¹ and the kon (soluble EGFR (sEGFR) [2]) was 63000 M⁻¹ s⁻¹.

Molecule “side–tail bivalent h528 scFv dimer with C1 linker” has a Kd (soluble EGFR (sEGFR) [1]) of 149 nM, a koff (soluble EGFR (sEGFR) [1]) of 0.005 s⁻¹ and a kon (soluble EGFR (sEGFR) [1]) of 34000 M⁻¹ s⁻¹. The Kd (soluble EGFR (sEGFR) [2]) was 109 nM, the koff (soluble EGFR (sEGFR) [2]) was 0.0047 s⁻¹ and the kon (soluble EGFR (sEGFR) [2]) was 43000 M⁻¹ s⁻¹.

For “side–side bivalent h528 scFv dimer with C1 linker”, the Kd (soluble EGFR (sEGFR) [1]) was 78 nM.

In the case of “side–side bivalent h528 scFv dimer with C6 linker”, the Kd (soluble EGFR (sEGFR) [2]) is reported as 34 nM.

B1: wild-type humanized 528 (h528) scFv (scFv, V domains shown)
VH: QVQLVQSGAEVKKPGASVKVSCKASGYTFTSYWMHWVRQAPGQGLEWMGNIYPGSGGTNYAEKFKNRVTMTRDTSISTAYMELSRLRSDDTAVYYCARSGGPYFFDYWGQGTLVTVSS
VL: DIVMTQSPLSLPVTPGEPASISCRSSQNIVHNNGITYLEWYLQKPGQSPQLLIYKVSDRFSGVPDRFSGSGSGTDFTLKISRVEAEDVGVYYCFQGSHIPPTFGQGTKVEIK
B1 was tested, and the Kd (soluble EGFR (sEGFR) [3]) was 26 nM, the koff (soluble EGFR (sEGFR) [3]) was 0.0052 s⁻¹ and the kon (soluble EGFR (sEGFR) [3]) was 196000 M⁻¹ s⁻¹.

B2: LK103-0K h528 scFv (scFv, V domains shown)
VH: QVQLVQSGAEVAEPGASVQVSCAASGYTFTSYWMHWVRQAPGQGLEWMGNIYPGSGGTNYAEEFQNRVTMTRDTSISTAYMELSRLRSDDTAVYYCARSGGPYFFDYWGQGTLVTVSS
VL: DIVMTQSPLSLPVTPGEPASISCRSSQNIVHNNGITYLEWYLQRPGQSPQLLIYQVSDRFSGVPDRFSGSGSGTDFTLTISRVEAEDVGVYYCFQGSHIPPTFGQGTKVEIE
notes: linker (GGGGS)3; lysine kept at L103; also called LK103-0K scFv
B2 showed a Kd (soluble EGFR (sEGFR) [4]) of 221 nM, a koff (soluble EGFR (sEGFR) [4]) of 0.0086 s⁻¹ and a kon (soluble EGFR (sEGFR) [4]) of 39000 M⁻¹ s⁻¹. For the same molecule, the Kd (soluble EGFR (sEGFR) [5]) was 207 nM, the koff (soluble EGFR (sEGFR) [5]) was 0.0089 s⁻¹ and the kon (soluble EGFR (sEGFR) [5]) was 43000 M⁻¹ s⁻¹. The Kd (soluble EGFR (sEGFR) [6]) was 205 nM, the koff (soluble EGFR (sEGFR) [6]) was 0.0086 s⁻¹ and the kon (soluble EGFR (sEGFR) [6]) was 42000 M⁻¹ s⁻¹.

B3: 0KCDR h528 scFv (scFv, V domains shown)
VH: QVQLVQSGAEVKKPGASVKVSCKASGYTFTSYWMHWVRQAPGQGLEWMGNIYPGSGGTNYAEEFQNRVTMTRDTSISTAYMELSRLRSDDTAVYYCARSGGPYFFDYWGQGTLVTVSS
VL: DIVMTQSPLSLPVTPGEPASISCRSSQNIVHNNGITYLEWYLQKPGQSPQLLIYQVSDRFSGVPDRFSGSGSGTDFTLKISRVEAEDVGVYYCFQGSHIPPTFGQGTKVEIK
notes: linker (GGGGS)3; it looks like Kabat numbering; also called 0KCDR scFv
For B3, the Kd (soluble EGFR (sEGFR) [6]) was 38 nM, the koff (soluble EGFR (sEGFR) [6]) was 0.0054 s⁻¹ and the kon (soluble EGFR (sEGFR) [6]) was 141000 M⁻¹ s⁻¹.

B4: HK19-0K h528 scFv (scFv, V domains shown)
VH: QVQLVQSGAEVAEPGASVKVSCAASGYTFTSYWMHWVRQAPGQGLEWMGNIYPGSGGTNYAEEFQNRVTMTRDTSISTAYMELSRLRSDDTAVYYCARSGGPYFFDYWGQGTLVTVSS
VL: DIVMTQSPLSLPVTPGEPASISCRSSQNIVHNNGITYLEWYLQRPGQSPQLLIYQVSDRFSGVPDRFSGSGSGTDFTLTISRVEAEDVGVYYCFQGSHIPPTFGQGTEVEIE
notes: lysine kept at H19; linker (GGGGS)3; 0K scFv with the 19th residue of VH returned to lysine; also called HK19-0K scFv; KH19-0K scFv
B4 showed a Kd (soluble EGFR (sEGFR) [4]) of 144 nM, a koff (soluble EGFR (sEGFR) [4]) of 0.0075 s⁻¹ and a kon (soluble EGFR (sEGFR) [4]) of 52000 M⁻¹ s⁻¹. For the same molecule, the Kd (soluble EGFR (sEGFR) [5]) was 108 nM, the koff (soluble EGFR (sEGFR) [5]) was 0.0075 s⁻¹ and the kon (soluble EGFR (sEGFR) [5]) was 69000 M⁻¹ s⁻¹. The Kd (soluble EGFR (sEGFR) [6]) was 135 nM, the koff (soluble EGFR (sEGFR) [6]) was 0.0079 s⁻¹ and the kon (soluble EGFR (sEGFR) [6]) was 60000 M⁻¹ s⁻¹.

B5: 0K h528 scFv (scFv, V domains shown)
VH: QVQLVQSGAEVAEPGASVQVSCAASGYTFTSYWMHWVRQAPGQGLEWMGNIYPGSGGTNYAEEFQNRVTMTRDTSISTAYMELSRLRSDDTAVYYCARSGGPYFFDYWGQGTLVTVSS
VL: DIVMTQSPLSLPVTPGEPASISCRSSQNIVHNNGITYLEWYLQRPGQSPQLLIYQVSDRFSGVPDRFSGSGSGTDFTLTISRVEAEDVGVYYCFQGSHIPPTFGQGTEVEIE
notes: linker (GGGGS)3; it looks like Kabat numbering; also called h528 scFv without lysine in the CDR and FR
In the case of B5, the Kd (soluble EGFR (sEGFR) [6]) is reported as 137 nM, the koff (soluble EGFR (sEGFR) [6]) is reported as 0.0082 s⁻¹ and the kon (soluble EGFR (sEGFR) [6]) is reported as 60000 M⁻¹ s⁻¹.

B6: FITC-labeled wild-type h528 scFv (scFv, V domains shown)
VH: QVQLVQSGAEVKKPGASVKVSCKASGYTFTSYWMHWVRQAPGQGLEWMGNIYPGSGGTNYAEKFKNRVTMTRDTSISTAYMELSRLRSDDTAVYYCARSGGPYFFDYWGQGTLVTVSS
VL: DIVMTQSPLSLPVTPGEPASISCRSSQNIVHNNGITYLEWYLQKPGQSPQLLIYKVSDRFSGVPDRFSGSGSGTDFTLKISRVEAEDVGVYYCFQGSHIPPTFGQGTKVEIK
notes: linker (GGGGS)3; m4 with a fluorescein label; also called fluorescently labeled wild-type scFv; labeled wild-type scFv
B6: binds (EGFR on A431 cells).
